How the values were obtained:
[1] = target: T1, unlabeled recombinant TBK1 (UniProt Q9UHD2 1-729); assay: other fluorescence titration; details: both partners purified
T1 sequence (looked up): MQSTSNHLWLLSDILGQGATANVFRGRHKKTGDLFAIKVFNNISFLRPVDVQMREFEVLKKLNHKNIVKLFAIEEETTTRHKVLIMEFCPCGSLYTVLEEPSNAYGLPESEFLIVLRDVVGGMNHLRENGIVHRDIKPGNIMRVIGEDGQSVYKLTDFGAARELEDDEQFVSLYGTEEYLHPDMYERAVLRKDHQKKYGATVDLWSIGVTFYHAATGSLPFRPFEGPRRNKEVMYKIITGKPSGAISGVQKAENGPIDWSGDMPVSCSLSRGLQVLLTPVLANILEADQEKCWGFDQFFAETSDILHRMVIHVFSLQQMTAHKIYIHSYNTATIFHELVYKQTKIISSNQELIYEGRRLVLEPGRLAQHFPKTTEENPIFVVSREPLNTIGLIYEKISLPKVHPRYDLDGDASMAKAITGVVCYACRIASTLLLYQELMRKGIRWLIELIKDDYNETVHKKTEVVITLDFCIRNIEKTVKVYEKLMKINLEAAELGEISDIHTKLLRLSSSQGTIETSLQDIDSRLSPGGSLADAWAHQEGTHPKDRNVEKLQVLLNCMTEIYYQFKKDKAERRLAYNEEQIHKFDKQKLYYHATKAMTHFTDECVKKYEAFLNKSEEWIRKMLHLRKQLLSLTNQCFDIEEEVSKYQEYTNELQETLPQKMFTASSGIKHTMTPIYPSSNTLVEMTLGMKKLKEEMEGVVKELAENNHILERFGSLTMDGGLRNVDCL

[2] = target: T2, unlabeled recombinant HK2 (UniProt P52789 1-917); assay: other fluorescence titration; details: both partners purified
T2 sequence (looked up): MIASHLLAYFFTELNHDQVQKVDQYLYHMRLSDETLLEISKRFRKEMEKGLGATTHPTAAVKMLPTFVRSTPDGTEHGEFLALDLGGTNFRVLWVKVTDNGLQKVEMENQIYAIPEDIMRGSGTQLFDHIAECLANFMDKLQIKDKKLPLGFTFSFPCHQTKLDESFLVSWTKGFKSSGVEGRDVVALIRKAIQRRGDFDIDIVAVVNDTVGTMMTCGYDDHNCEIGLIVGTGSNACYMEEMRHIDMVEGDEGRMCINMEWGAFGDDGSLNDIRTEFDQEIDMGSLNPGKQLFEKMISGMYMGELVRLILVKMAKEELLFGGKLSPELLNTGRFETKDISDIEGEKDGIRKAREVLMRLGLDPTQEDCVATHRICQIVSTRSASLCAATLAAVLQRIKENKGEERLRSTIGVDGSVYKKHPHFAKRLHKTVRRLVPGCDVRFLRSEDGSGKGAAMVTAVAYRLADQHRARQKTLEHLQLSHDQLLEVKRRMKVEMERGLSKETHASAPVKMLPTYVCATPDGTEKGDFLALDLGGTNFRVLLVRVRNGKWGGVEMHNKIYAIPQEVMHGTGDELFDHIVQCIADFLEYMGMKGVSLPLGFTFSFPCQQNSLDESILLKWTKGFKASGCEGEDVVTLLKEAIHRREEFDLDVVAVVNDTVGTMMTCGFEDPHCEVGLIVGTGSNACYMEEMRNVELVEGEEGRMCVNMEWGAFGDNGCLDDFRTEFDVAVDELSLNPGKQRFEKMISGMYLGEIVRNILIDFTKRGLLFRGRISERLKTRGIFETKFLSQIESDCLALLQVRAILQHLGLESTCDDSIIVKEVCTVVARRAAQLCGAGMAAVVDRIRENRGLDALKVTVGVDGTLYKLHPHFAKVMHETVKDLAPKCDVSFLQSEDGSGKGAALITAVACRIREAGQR

[3] = system: host proteins in THP-1 macrophage cell lysates; assay: Co-immunoprecipitation from THP-1 cell lysates with mass spectrometry identification of binding partners; design: species or system human
[4] = system: TBK1; assay: Endogenous co-immunoprecipitation with TBK1 in THP-1 cells; assay type: binding, human; details: 5 μg mL^−1, IP with αHis-agarose bead
Procedure: (§1) Figure 1 TBK1 and p47phox is bound with MPT63. (A) Identification of TBK1 and p47phox by mass spectrometry analysis in THP-1 cell lysates treated with rMPT63 or rVector. (B) THP-1 cells were stimulated with rMPT63 (5 μg mL^−1) for the indicated times, followed by immunoprecipitation (IP) with αHis-agarose bead and IB with αTBK1, αP-TBK1 (S172), αp47phox, αP-p47phox (S304, 345, 359, and 370), αHis, αActin. […] (E,G) Binding mapping. Schematic diagrams of the structures of MPT63 (upper). At 48 h after transfection with mammalian glutathione S-transferase (GST) or GST-MPT63 and truncated mutant constructs together with Flag-TBK1 or V5-p47phox. 293T cells were used for GST pull down, followed by IB with αFlag or αV5. Cell lysates (WCLs) were used for IB with αFlag or αV5, αGST, and αActin. […]
(§2) Antibody binding was visualized by chemiluminescence (ECL; Millipore) and detected by a Vilber chemiluminescence analyzer (Fusion SL 3; Vilber Lourmat).
(§3) Confocal fluorescence microscopy
(§4) Immunofluorescence analysis was performed as described previously (Koh et al, 2017). […] TRAF6 or His was detected using a 1/100 dilution of the primary Ab for 1 h at 25 °C. […]
(§5) Cell viability relative to non-treated group was measured by MTT assay, as […]

[5] = target: T3, unlabeled recombinant p47phox (UniProt P14598 1-390); assay: other fluorescence titration; details: both partners purified
T3 sequence (looked up): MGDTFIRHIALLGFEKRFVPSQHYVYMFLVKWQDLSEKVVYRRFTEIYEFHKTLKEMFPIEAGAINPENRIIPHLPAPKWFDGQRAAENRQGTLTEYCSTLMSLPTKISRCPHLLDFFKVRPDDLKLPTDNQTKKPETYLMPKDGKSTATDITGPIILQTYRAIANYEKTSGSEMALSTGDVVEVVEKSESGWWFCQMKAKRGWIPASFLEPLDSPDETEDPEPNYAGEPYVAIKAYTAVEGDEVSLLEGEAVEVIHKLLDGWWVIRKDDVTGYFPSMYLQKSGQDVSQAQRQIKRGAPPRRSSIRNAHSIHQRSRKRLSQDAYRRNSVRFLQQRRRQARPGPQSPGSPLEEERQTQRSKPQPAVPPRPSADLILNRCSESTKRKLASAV

[6] = system: p47phox; assay: Endogenous co-immunoprecipitation with p47phox in THP-1 cells; assay type: binding, human; details: rMPT63 5 μg mL^−1, IP with αHis-agarose bead
Procedure: as §1, §2, §3, §4, §5

[7] = target: T4, TBK1 (Homo sapiens, UniProt Q9UHD2); assay type: binding
T4 sequence (Q9UHD2 1-729): T1 sequence (looked up)

[8] = system: p47phox; assay type: binding
[9] = system: macrophages; details: conformational switch dependent on the pH of the host; ref [8]; cited from earlier work
[10] = system: murine peritoneal macrophages; details: TNF-α and IL-6 secretion, ref [9]; cited from earlier work
[11] = system: HLA-DR, an MHC class II cell surface receptor; details: MPT63 and its epitope; ref [44]; cited from earlier work
[12] = system: Th1 cell; details: MPT63 and its epitope; ref [44]; cited from earlier work

B1: fluorescently labelled MPT64 (natural protein)
chain: APKTYCEELKGTDTGQACQIQMSDPAYNINISLPSYYPDQKSLENYIAQTRDKFLSAATSSTPREAPYELNITSATYQSAIPPRGTQAVVLKVYQNAGGTHPTTTYKAFDWDQAYRKPITYDTLWQADTDPLPVVFPIVQGELSKQTGQQVSIAPNAGLDPVNYQNFAVTNDGVIFFFNPGELLPEAAGPTQVLVPRSAIDSMLA
[1]
  Kd: 0.193 µM
[2]
  Kd: 0.134 µM

B2: rMPT64: recombinant MPT64, produced in a bacterially expressed system as MPT63 (protein)
chain: B1 chain
[3]
  binding partners identified by mass spectrometry: interacted with several host proteins, including hexokinase 2 (HK2, 102K), TBK1 (83K), protein kinase Cα (PKCα, 76K), TNF receptor associated factor 6 (TRAF6, 60K), and p38MAPK (38K)
[4]
  endogenous interaction with TBK1 and phosphorylated form: phosphorylated TBK1 (S172) also interacted with rMPT64

B3: fluorescently labelled MPT63 (natural protein)
chain: AYPITGKLGSELTMTDTVGQVVLGWKVSDLKSSTAVIPGYPVAGQVWEATATVNAIRGSVTPAVSQFNARTADGINYRVLWQAAGPDTISGATIPQGEQSTGKIYFDVTGPSPTIVAMNNGMEDLLIWEP
[1]
  Kd: 0.178 µM
[5]
  Kd: 0.345 µM

B4: rMPT63: recombinant MPT63, purified using a 6x His bacterially expressed system (protein)
chain: B3 chain
[3]
  binding partners identified by mass spectrometry: included TANK-binding kinase (TBK1, 83K), receptor-interacting serine/threonine-protein kinase 1 (RIP1, 75K), RAC-alpha serine/threonine-protein kinase (AKT, 55K), Neutrophil cytosol factor 1 (p47phox, 45K), and p38 mitogen-activated protein kinase (p38MAPK, 38K)
[4]
  endogenous interaction with TBK1 and phosphorylated form: interacted with TBK1 and p47phox and, interestingly, with their phosphorylated forms as well
[6]
  endogenous interaction with p47phox and phosphorylated forms: interacted with TBK1 and p47phox and, interestingly, with their phosphorylated forms as well (S345 and S359)

B5: MPT63: secretory immunodominant antigen of MTB (protein)
chain: B3 chain
[7]
  region of MPT protein binding TBK1: the N-terminal of MPT63 bound with TBK1 and 48–56 peptide was essential for the interaction between MPT63 and TBK1. Specifically, 50–56 amino acids, except G53, seemed to be fundamental for binding
[8]
  region of MPT63 binding p47phox: The C-terminal of MPT63 was associated with p47phox, particularly the 150–159 amino acids in the C-terminal domain of MPT63 were important for binding with p47phox. Additionally, E152, D153, and E158 in MPT63 were key amino acids
[9]
  macrophage cell death: induced cell death of macrophages
[10]
  phagocytic activity: enhanced the phagocytic activity by upregulating the secretion of TNF-α and IL-6
[11]
  binding to HLA-DR: bind promiscuously to HLA-DR
[12]
  Th1 cell reactivity: induce a moderate Th1 cell reactivity
